Laboratory results: article doi:10.64898/2025.12.08.693079

Assays:
[1] = target: purified 20S core peptidase (CP) (S. cerevisiae) (UniProt P21242); experiment: Suc-LLVY-AMC peptidase activity titration
[2] = target: purified 20S core peptidase (CP) (S. cerevisiae) (UniProt P21242); experiment: NADH-coupled ATPase displacement assay

Chain of UniProt P21242 (P21242 whole entry, looked up): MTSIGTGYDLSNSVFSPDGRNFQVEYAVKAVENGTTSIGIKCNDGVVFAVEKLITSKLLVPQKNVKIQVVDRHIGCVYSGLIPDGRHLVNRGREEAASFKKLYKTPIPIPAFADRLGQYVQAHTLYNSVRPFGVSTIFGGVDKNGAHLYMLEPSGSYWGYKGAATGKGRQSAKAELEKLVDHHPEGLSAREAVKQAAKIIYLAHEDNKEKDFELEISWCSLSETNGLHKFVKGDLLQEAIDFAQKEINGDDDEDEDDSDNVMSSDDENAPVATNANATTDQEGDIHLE

For “3x-Flag-tagged Blm10 (from UniProt P43583 1-2143) (natural protein)”, the Kd [1] was 65 nM and the IC50 [2] was 3000 nM.
